In PMC9123187:

Legend:
[1] = target: Type I-D Cascade WT (assay sample) (Synechocystis) (UniProt Q6ZEI7+Q6ZEI6+Q6ZEI5+Q6ZEI7); assay: EMSA; settings: EMSA: 10 mM HEPES-NaOH pH 7.5, 100 mM KCl, 5% glycerol, 1 mM DTT, 0.01% Triton X-100, 1 µg BSA, 0.1 µg poly(dI.dC) (dsDNA) or 0.26 µg E. coli tRNA (ssRNA) in …
[2] = target: Cas7d, backbone subunit of type I-D Cascade (Synechocystis); assay: cryo-EM structure; type I-D Cascade (co-expressed subunits with crRNA, purified as a complex) bound to a dsDNA target with GTT PAM, 1:2 Cascade:target, 30 °C 30 min; 2.9 Å
[3] = target: Cas11d, small subunit of type I-D Cascade (Synechocystis); assay: as above

Substance | Kd [1] | also measured
GCAUGACGGAUCGAGGCAUUGAAAGCGACCGCCAGGGGCACAACAAUCAACGUGAUACUA / ACUGAAACGAUUGUUGUGCCCCUGGCGGUCGCUUUCAAUGCCU [PF3167 AAC-PFS ssRNA + crRNA] | 11 nM | 
Cas7d, backbone subunit of type I-D Cascade (natural protein) |  | stoichiometry N [2]: 7
Cas11d, small subunit of type I-D Cascade (natural protein) |  | stoichiometry N [3]: 2
GCAUGACGGAUCGAGGCAUUGAAAGCGACCGCCAGGGGCACAACAAUCACGGUGAUACUA / ACUGAAACGAUUGUUGUGCCCCUGGCGGUCGCUUUCAAUGCCU [PF5591 ACG-PFS ssRNA + crRNA] | 11 nM | 
